Among the targets are HLA-A*02:06; HLA-A*02:02; HLA-A*68:02; HLA-A*02:01; HLA-A*02:03.
Holding throughout (experiment): IEDB peptide-MHC binding, purified MHC/competitive/radioactivity; ≥ and ≤ were set here for values at or beyond the usual limits of such assays
The mark [1] stands for this setting: source organism: Vaccinia virus WR.
Where [2] appears, read: source organism: Influenza A virus.
The mark [3] stands for this setting: source organism: Hepacivirus hominis.
[4] abbreviates: source organism: Mammarenavirus lassaense.

In the Immune Epitope Database (IEDB) one finds IC50 data, which are given here for 24 sequences.

Take VIIMAINVFT: the IC50 with HLA-A*02:06 (setting [1]) was 674 nM; with HLA-A*02:02 (setting [1]) it was 320 nM; in the test with HLA-A*68:02 (setting [1]), 740 nM; with HLA-A*02:01 (setting [1]) it was 641 nM; with HLA-A*02:03 (setting [1]), 820 nM.
On the same counts, the results for YVSPTEMVDV are 5.2 nM, 63 nM, 235 nM, 21 nM and 50 nM.
On to MQIAILVTTV, for which the IC50 with HLA-A*02:06 (setting [2]) came to 61 nM; with HLA-A*02:02 (setting [2]), 40 nM; with HLA-A*68:02 (setting [2]) it was 129 nM; in the test with HLA-A*02:01 (setting [2]), 79 nM; in the test with HLA-A*02:03 (setting [2]) it was 6 nM.
As for MVLMTHFFSV, the IC50 with HLA-A*02:06 (setting [3]) is 15 nM; in the test with HLA-A*02:02 (setting [3]) it was 808 nM; with HLA-A*68:02 (setting [3]), 13 nM; with HLA-A*02:01 (setting [3]) it was 146 nM; with HLA-A*02:03 (setting [3]), 174 nM.
For NCLSLLLSV, the IC50 with HLA-A*02:06 (setting [4]) amounted to 630 nM; with HLA-A*02:02 (setting [4]), 49 nM; in the test with HLA-A*68:02 (setting [4]), 1850 nM; with HLA-A*02:01 (setting [4]), 73 nM; with HLA-A*02:03 (setting [4]) it was 437 nM.
Consider VISVIFYFI, for which the IC50 with HLA-A*02:06 (setting [1]) came out at 497 nM; in the test with HLA-A*02:02 (setting [1]) it was 1.4 nM; in the test with HLA-A*68:02 (setting [1]), 7.6 nM; with HLA-A*02:01 (setting [1]) it was 331 nM; with HLA-A*02:03 (setting [1]), 729 nM.
On to ITYCLVTHM, for which the IC50 with HLA-A*02:06 (setting [1]) was 1410 nM; in the test with HLA-A*02:02 (setting [1]), 1280 nM; in the test with HLA-A*68:02 (setting [1]), 1730 nM; in the test with HLA-A*02:01 (setting [1]) it was 3100 nM; in the test with HLA-A*02:03 (setting [1]), 2330 nM.
For KLYGYASLTT the same measures were 34 nM, 1.9 nM, 1740 nM, 19 nM and 0.26 nM.
On the same counts, the results for YTISSESLV are 54 nM, 522 nM, 3.3 nM, 1060 nM and 38 nM.
On the same counts, the results for KLPTLFGRGV are 53 nM, 190 nM, 509 nM, 273 nM and 33 nM.
Regarding KIMEIVSHL, the IC50 with HLA-A*02:06 (setting [1]) amounted to 30 nM; in the test with HLA-A*02:02 (setting [1]), 79 nM; with HLA-A*68:02 (setting [1]) it was 1070 nM; in the test with HLA-A*02:01 (setting [1]), 76 nM; in the test with HLA-A*02:03 (setting [1]), 10 nM.
For the sequence SIYIAVANCV, the IC50 with HLA-A*02:06 (setting [1]) was found to be 1000 nM; with HLA-A*02:02 (setting [1]) it was 534 nM; with HLA-A*68:02 (setting [1]) it was 306 nM; with HLA-A*02:01 (setting [1]) it was 1460 nM; in the test with HLA-A*02:03 (setting [1]), 63 nM.
In the case of FVSTMPVET, the IC50 amounted to 1540 nM in the test with HLA-A*02:06 (setting [1]); 1220 nM with HLA-A*02:02 (setting [1]); 325 nM in the test with HLA-A*68:02 (setting [1]); 841 nM with HLA-A*02:01 (setting [1]); 391 nM with HLA-A*02:03 (setting [1]).
On the same counts, the results for IVSKCIVQSV are 552 nM, 123 nM, 50 nM, 612 nM and 31 nM.
For the sequence LLLEWLAEV, the IC50 was 0.11 nM with HLA-A*02:06 (source organism: SARS-CoV1); 0.11 nM with HLA-A*02:02 (source organism: SARS-CoV1); 339 nM with HLA-A*68:02 (source organism: SARS-CoV1); 0.22 nM with HLA-A*02:01 (source organism: SARS-CoV1); 0.63 nM in the test with HLA-A*02:03 (source organism: SARS-CoV1).
On to FLNGSCGSV, for which the IC50 in the test with HLA-A*02:06 (source organism: SARS-CoV1) came to 64 nM; in the test with HLA-A*02:02 (source organism: SARS-CoV1) it was 1 nM; with HLA-A*68:02 (source organism: SARS-CoV1) it was 318 nM; with HLA-A*02:01 (source organism: SARS-CoV1) it was 5.8 nM; with HLA-A*02:03 (source organism: SARS-CoV1), 0.57 nM.
Consider YQCGHYTHI, for which the IC50 with HLA-A*02:06 (source organism: SARS-CoV1) worked out at 9.2 nM; in the test with HLA-A*02:02 (source organism: SARS-CoV1), 72 nM; in the test with HLA-A*68:02 (source organism: SARS-CoV1) it was 2920 nM; with HLA-A*02:01 (source organism: SARS-CoV1), 20 nM; with HLA-A*02:03 (source organism: SARS-CoV1), 15 nM.
For the sequence NVISKIYTL, the IC50 with HLA-A*02:06 (setting [1]) was determined as 1.7 nM; with HLA-A*02:02 (setting [1]) it was 147 nM; with HLA-A*68:02 (setting [1]), 4.6 nM; with HLA-A*02:01 (setting [1]) it was 147 nM; with HLA-A*02:03 (setting [1]), 97 nM.
For the sequence LLPLTSLVIT, the IC50 was found to be 1610 nM with HLA-A*02:06 (setting [1]); 999 nM with HLA-A*02:02 (setting [1]); 1490 nM with HLA-A*68:02 (setting [1]); 1170 nM with HLA-A*02:01 (setting [1]); 1320 nM with HLA-A*02:03 (setting [1]).
For RLQMAGVEV the same measures were 4110 nM, 326 nM, 2510 nM, 1450 nM and 531 nM.
With MQIRGFVYFV, the IC50 turned out to be 10 nM with HLA-A*02:06 (setting [2]); 19 nM with HLA-A*02:02 (setting [2]); 25 nM with HLA-A*68:02 (setting [2]); 15 nM with HLA-A*02:01 (setting [2]); 3.6 nM with HLA-A*02:03 (setting [2]).
Turning to GLSDRVVFV, the IC50 with HLA-A*02:06 (source organism: SARS-CoV1) is 69 nM; with HLA-A*02:02 (source organism: SARS-CoV1) it was 1 nM; in the test with HLA-A*68:02 (source organism: SARS-CoV1) it was 1170 nM; with HLA-A*02:01 (source organism: SARS-CoV1), 3.1 nM; with HLA-A*02:03 (source organism: SARS-CoV1), 1.1 nM.
With HLFTSMFSL, the IC50 stood at 627 nM with HLA-A*02:06 (setting [3]); 5.2 nM with HLA-A*02:02 (setting [3]); 181 nM in the test with HLA-A*68:02 (setting [3]); 49 nM with HLA-A*02:01 (setting [3]); 105 nM with HLA-A*02:03 (setting [3]).
For TIAGGVCYYL, the IC50 in the test with HLA-A*02:06 (setting [1]) came to 4 nM; with HLA-A*02:02 (setting [1]), 0.036 nM; with HLA-A*68:02 (setting [1]), 0.13 nM; in the test with HLA-A*02:01 (setting [1]) it was 0.24 nM; with HLA-A*02:03 (setting [1]) it was 34 nM.
